Laboratory results published in the supplement of paper PMC7877785.
± gives the uncertainty stated by the source.

Experiment: self-splicing fitness, log relative to wild type (ln ratio); higher = more splicing; Tetrahymena group I intron in knt gene, E. coli kanamycin selection, DiMSum; sequences stand for … in CUCUCU…GGAGGGAAAAGUUAUCAGGCAUGCACCUGGUAGCUAGUCUUUAAACCAAUAGAUUGCAUCGGUUUAAAAGGCAAGACCGUCAAAUUGCGGGAAAGGGGUCAACAGCCGUUCAGUACCAAGUCUCAGGGGAAACUUUGAGAUGGCCUUGCAAAGGGUAUGGUAAUAAGCUGACGGACAUGGUCCUAACCACGCAGCCAAGUCCUAAGUCAACAGAUCUUCUGUUGAUAUGGAUGCAGUUCACAGACUAAAUGUCGGUCGGGGAAGAUGUAUUCUUCUCAUAAGAUAUAGUCGGACCUCUCCUUAAUGGGAGCUAGCGGAUGAAGUGAUGCAACACUGGAGCCGCUGGGAACUAAUUUGUAUGCGAAAGUAUAUUGAUUAGUUUUGGAGUACUCGUGGUCG
In short: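 Fitness was computed with DiMSum as the error-weighted combination of replicate fold changes, kanamycin versus none, each normalised to wild type. The library randomised all eight intron nucleotides of the P1ex region, with the intron placed in the knt kanamycin-resistance gene on pET-22b(+) in E. coli BL21(DE3). Six replicate transformations were grown overnight at 37°C or 30°C on LB agar with or without 25 μg/mL kanamycin, plus 100 μg/mL carbenicillin, 50 μM IPTG and 0.2% rhamnose. Pooled colonies were amplicon-sequenced on an Illumina HiSeq 2500.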

Sequence | self-splicing fitness (ln) (30 °C) | self-splicing fitness (ln) (37 °C)
AAGAAGCAAUAUUACGGUGU | -1.99 ± 0.072 | -1.65 ± 0.086
AGCCAGCAAUAUUACGCGGG | -3.29 ± 0.19 | -2.91 ± 0.28
CUAGAGCAAUAUUACGGGCG | 0.0237 ± 0.11 | 0.638 ± 0.14
GAUCAGCAAUAUUACGUAUU | -2.69 ± 0.12 | -1.38 ± 0.12
UUAAAGCAAUAUUACGAUCC | -1.64 ± 0.18 | -0.49 ± 0.24
UACCAGCAAUAUUACGGCAG | -0.582 ± 0.081 | 0.685 ± 0.1
CAGCAGCAAUAUUACGGCCC | -0.505 ± 0.15 | -0.0529 ± 0.23
AGCCAGCAAUAUUACGGUUU | -3.43 ± 0.2 | -2.04 ± 0.18
UUCCAGCAAUAUUACGACCA | -0.177 ± 0.26 | -0.862 ± 0.23
UCCAAGCAAUAUUACGAGAC | – | -2.23 ± 0.29
CCCUAGCAAUAUUACGGGGA | -3.28 ± 0.23 | -2.41 ± 0.2
AUUCAGCAAUAUUACGUCUC | -1.97 ± 0.14 | -0.374 ± 0.13
GACAAGCAAUAUUACGUGGA | -3.18 ± 0.16 | -1.42 ± 0.1
CAAGAGCAAUAUUACGACGA | -3.01 ± 0.2 | -1.77 ± 0.23
AUGUAGCAAUAUUACGGUCU | -0.562 ± 0.096 | -0.014 ± 0.1
AAGGAGCAAUAUUACGGCGC | -2 ± 0.27 | -2.34 ± 0.48
UAACAGCAAUAUUACGUACU | -1.07 ± 0.063 | -0.454 ± 0.068
GGUCAGCAAUAUUACGAGCA | -0.762 ± 0.32 | –
UUUCAGCAAUAUUACGCGGU | -3.46 ± 0.25 | -1.92 ± 0.2
ACCCAGCAAUAUUACGCACG | -1.86 ± 0.067 | -1.01 ± 0.084
AGGCAGCAAUAUUACGUAUC | -2.26 ± 0.16 | -0.296 ± 0.12
CGGGAGCAAUAUUACGUGAG | -1.03 ± 0.11 | -0.865 ± 0.11
CCCAAGCAAUAUUACGAGCC | -3.79 ± 0.4 | -2.79 ± 0.44
AUCCAGCAAUAUUACGUACG | -1.7 ± 0.11 | -0.813 ± 0.19

Sequence | self-splicing fitness (ln) (30 °C) | self-splicing fitness (ln) (37 °C)
ACGUAGCAAUAUUACGAUUA | -0.625 ± 0.12 | -0.514 ± 0.11
UUGAAGCAAUAUUACGCUAU | -2.7 ± 0.25 | -1.45 ± 0.26
AGAGAGCAAUAUUACGGCGC | – | -2.13 ± 0.35
AUAGAGCAAUAUUACGUAUA | -2.1 ± 0.19 | -0.371 ± 0.21
AAAUAGCAAUAUUACGGGAU | -2.7 ± 0.099 | -1.03 ± 0.11
CUGGAGCAAUAUUACGACUC | – | -2.39 ± 0.41
CGCUAGCAAUAUUACGUUGA | -3.06 ± 0.17 | -2.38 ± 0.14
ACUUAGCAAUAUUACGCCAU | -2.99 ± 0.35 | -2.52 ± 0.38
GACUAGCAAUAUUACGCUUU | -2.59 ± 0.19 | -1.66 ± 0.16
UCUUAGCAAUAUUACGUGAG | -0.751 ± 0.079 | -0.366 ± 0.14
GUCAAGCAAUAUUACGCGAA | -1.88 ± 0.085 | -0.888 ± 0.091
UCAAAGCAAUAUUACGUUCA | -0.821 ± 0.099 | -0.534 ± 0.11
GUCGAGCAAUAUUACGCCUC | -1.51 ± 0.23 | -0.868 ± 0.33
CCGCAGCAAUAUUACGAAAU | -3.66 ± 0.32 | -3.38 ± 0.33
AUGGAGCAAUAUUACGGCUA | -0.572 ± 0.23 | -0.853 ± 0.26
GGGCAGCAAUAUUACGCCGA | -0.407 ± 0.078 | 0.467 ± 0.1
CAGUAGCAAUAUUACGUGCA | -3.14 ± 0.13 | -2.45 ± 0.14
AGGCAGCAAUAUUACGGGCC | -2.17 ± 0.29 | -1.52 ± 0.26
AACUAGCAAUAUUACGCAAG | -3.14 ± 0.14 | -1.77 ± 0.15
UGAAAGCAAUAUUACGGGUU | -4.06 ± 0.27 | -2.06 ± 0.19
GCUUAGCAAUAUUACGCGAA | -2.55 ± 0.11 | -1.98 ± 0.11
UAAGAGCAAUAUUACGUGCG | -3.85 ± 0.42 | -0.711 ± 0.27
GGGGAGCAAUAUUACGUUCA | -1.86 ± 0.25 | -1.35 ± 0.19
CAUCAGCAAUAUUACGACGG | -0.186 ± 0.085 | -0.0315 ± 0.1
